According to the nanobody polyreactivity screen of Harvey et al. (2022):

experiment: yeast display, Sf9 membrane polyspecificity reagent, FACS + sequencing; frameworks hold sequencing errors
Procedure, shortened: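 After 36–48 hours of galactose induction, yeast (Saccharomyces cerevisiae BJ5465) displaying a synthetic nanobody library were stained at 4 °C for 1 hour with 10% biotinylated, detergent-solubilized Sf9 membrane reagent. Streptavidin microbeads enriched the stained cells before FACS sorting into low and high (top ~1%) gates on anti-HA and streptavidin fluorescence. Each clone's polyreactivity label reflects its gate of origin.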

Sequence	polyreactivity (PSR sort gate)
QVQLLESGGGLVQAGGSLRLSCAASGRIFGSNAMGWYRPAPGKERELVAAITRGGSTNYADSVKGRFTISRDNAKNTVYLQMNSLKPEDTAVYYCAVRWYRKYNYWGQGTQVTVSS	high polyreactivity
QVQLVESGGGLVQAGGSLRLSCAASGNILTTYAMGWYRQAPGKERELVAAIRWSDGSTYYADSVKGRFTISRDNAKNTVYLQMNSLKPEDTAVYYCAADYHYPTWQGGYHYGYWGQGTQVTVSS	high polyreactivity
EVQLVESGAGLLQAGGSLRISCAASGITLAYYAMGGYRQAPGTERELVAVINIGVSTDYADSVKGRFTISRDNAKNTVYVQMTSLKPEDTAVYYSAAGWGRRWPQYNYWGQGTQVTVSS	high polyreactivity
QVQLVESGGGLVQAGGSLRLICAASGSTLPGYVKGWYRQAPGKERELVAAITKSGGSTYYADSVKGRFTISRDNAKNTVYLQMNSLKPEDTAVYYCAVGVKAQIAGDYWGQGTQVTVSS	low polyreactivity
QVQLVESGGGLVQAGGSLRLSCAASGYIFFGNAMGWYRQAPGKERDLVAAIRWRGTSTYYADSVKGRFTISRDNAKNTVTFLMNSLKPEDSAVYYCAADVVRSNFYGTFLYDYEYWGKGTQVTVSS	low polyreactivity
QFQLVESGGGLVQEGGSLRLSCAASGRTLAKNAMGWYRQAPGKEREFVAAISRRGGSTYYADSVKGRFTISRDYAKYTVYLQLNSLKREDTAVYYCARASRQGYYQLSYDEFDYWGQGTQVTVSS	high polyreactivity
QVQLVESGGGLVQAGGILRLSCAASGRIKPRNAMGWYRQAPGKERELVAAISWDGGSTYYADSVKGRFTISRDNAKNTVYLQINSLKPVDTAVYYCNVYVSAGEEDEYWGQGTQVTVSS	low polyreactivity
QVQLVESGGGLVQAGGSLSLSCAASGSPFLYYTMGWYRQAPGKERELVATISRDGSTNYADSVKGRFTISRDNAKNSVYLQMNSLKPEDTAVYYCAAARDSIGYGQYDYWGQGTQVTVSS	low polyreactivity
QVQLVESGGGIVQAGGSLRLSSAASGRIFYRYAMGWYRQAPGKERELVASITRSGITHYADSVNGRFTISRDNAKNTVYLQMNSLKPEDTAVYYCNKRPWHRSSRPFYYWGQGTQVTVSS	high polyreactivity
QVQLVESGGGLVQAGGSLRLSCAASGFIFGQYAMGWYRQAPGKERELVAAISWSGGRTNYADSVKGRFTISRDNAKYTVYLQMNSLKPEDTAVSYCAARKGKYPQYTYGYWGQGTQVSVSS	high polyreactivity
QVQLVESGGGIVQAGGSLRLSCAASGSTFVVYAMVWYRQEPGKERELVAAITSGGSTYYADSVKGRFTISRDNAKNTVFLQMNSLKPDDSAVYYCNKDDFSNELYWGQGTDVTVSS	low polyreactivity
QVQLVESGGGLVQAGGSLRLSCAASGRTFIVNTMGWYRQAPGKERELVAAITARGGRTYYADSVKGRFTISRDNAKNTVYLQMNSLIPEDTAVYYCNASTPPREAERYYWGQGTQVTVSS	low polyreactivity
QVQLVESGGGLGQAGGSLRLSCAASGRTFTGYAMGWYRQAPGKERELVATISRSGGTTSYADSVKGRFTISRDNAKNTVYVQMNSLKPVDTAVYYCAADRRSRPYYYWGQGTQVTVSS	high polyreactivity
QVQLVESGGGLVQAGGSLRLSCAASGFTFSTNAMAWYRQAPGKERELVAAITSSGGSTYYADSVKGRFTISRDNAKNTVYLQMNSLKPEDTAVYYCATGPSQVGGDYWGQGTQVTVSS	high polyreactivity
QFQLEESGGGLVQAGGSLRLSCAASGNIFFTNAMGRYRQAPGNERELVATITFRGTSTYYADSVKGRFTISRDNAKNTVYLQMNCLKPEDTAVYYCTARYSVFHRARVNLLGWGLYYWGQGTQVTVSS	low polyreactivity
QVQLVESGGGLVQAGGSLRLSCAASGSTFIYNAMGWYRQAPGKERELVAGITGSGGSTYYADSVKGRFTISRDNAKNNVYLQMNSLKPEDTAVYYCAADRHIHYTDARMDYWGQGTQVTVSS	low polyreactivity
QVQLVESVAGLVQAGGSLRLSCAASGSTFTGNAMGWYRQAPRKERELVAAITKGGSRTYYADSVKGRFTISRDNAKNTVYLQMNSLKPEDTAVYYCAAIERYSYLLYPKFDYWGQGTQVTVSS	high polyreactivity
QVQLVESGVGLVQAGGSLRLSCASSGRIFDLNSMGWYIQAPGKERELVAVIDRDGSTYYADSVKGRFTISRDNAKNTVYLQMNSLKPDDTAVYYCNKYWYSRHVRYWAYYAEQRYDYCGQGTQVTVSS	low polyreactivity
QVQLVESGGGLVQAGGSLRLSCAASGFTFWRYALGWYRQAPGKETEFVASITWSGGSTYYADSVKGRFTISRDNAKNTVYLQMNRLQPEDTAVYYCAAVARTSGIKYYYWGQGTQVTVSS	high polyreactivity
QVQLGDSGGGLVQAGGSLRLSCAASGSIFSKYAMGWSRKAPGKERELVATISSSVGSTYYADSVKGRFTISRDNAKNSVYLQMNSLKPEDTAVYYCAARPDYEYGTHYRGGYWGQGTQVTVSS	low polyreactivity

Sequence	polyreactivity (PSR sort gate)
QVQLVESGGGLVQAGGSLRLSCAASGSTFGGYAMGWYRQAPGKERELVAAISRRGVSTYYADSVKGRFTISRDNAKNTVYLQMNSLKPEDTAVYYFNKKYFYSRHGSWGQGSQVTVSS	high polyreactivity
QVQLVESGGGLVQAGGSLRLSCAASGRTFVLYTMGWYRQAPGKERELVAVGSTYYADSVKGRFTISRDNAKNTVYLQMNSLKPEDTAVYYCNKPGNYVWRRSWDFDYWGQGTQVTVSS	high polyreactivity
QVQLVESGGGLVQAGGSLRLSCAASGSIFAFYAMGWYRQSPGKERELVAAISYNGGSTYYADSVKVRFTLSRDNAKNTVYLQMNSLEPEDTAVYYCAAYHFSAPSEYDYWGQGTQVTVSS	low polyreactivity
QVQLVESGGGLVQAGGSLRLSCAASGSTFYRYAMGWYRQAPGKERELVAAITRTTARTYYADSVKGRFTISRDYAKNTVYLQMNSLKPEDTAVYYCAADLYSWTWSGFRQYDYWGQGTQVTVSS	high polyreactivity
QVQLVESGGGLVQAGGSLRLSCAASGGIFSSYAMGWYRPAPGKERELVAAIDSDGTTYYADSVKGRFTISRDNAKNTVYLQMNSLKPEDTAVYYCATGYPVRYRGYLNWSYYAYDYWGQGTQVTVSS	low polyreactivity
QDQLVESGGGLVQAGGSLRLSCAASRSIFPLYAMGWYRQATGKEREMVAAISYSGGRTYYADSVKGRFTISRDNAKNTVYLQMNSLKPEDTAVYYCNTRQRVIDDYWGQGTQVSVSS	high polyreactivity
QVQLVESGGGLVQAGGSLRLSCAASGRIFPTSTKGWYRQAPGKERELVAAITSGGTTYYADSVKGRVTISRDNAKNTVYLQMNSLKPEDTAVYYCAALRPRRGYYYWGQGTQVTVSS	high polyreactivity
QVQLVESGGGLVQAGGSLRLSCAASGSIFFNNTKGWYRPAPGKERELVAAINWSGTSTYYADSVKGRFTISRDNAMNTVYLQMNSLKPEDTEVYYCAADVVRSNFDGTFLYDYDYWGLGTQVTVSS	low polyreactivity
QVQLVESGGGLVQAGGSLRLSCAASGSIFWYYAMGWSRQAPGKERELVAAITGSGGSTYYADSVKGRFTISRDNAKTTVYLQLNSLKPEDTAVYYCAAEAFFWYYGWYDYWGQGTQVTVSS	high polyreactivity
QVQLVESGGGLVQAGGSLRLSCAASGSTLRYYGMGWYRQAPGKEREFVATLSWGGGSTYYADSVKGRFTISRDNAKNTVYLQINSLKPEDTAVYYCAASWNGGLFQTKYGYWGQGTQVTVSS	high polyreactivity
QVQLVESGGGLVQAGGSLRLSCAASGLTFERYAMGSYIQAPGKERELVAAISGSGGSTYYADSVKGRFTISRDNAKNTVYLQMNSLKPEDTAVYYCAAYPTVWYDYWGQGTQVTVSS	high polyreactivity
QVQLVESGGGLVQAGGSLRLSCAASGRIFGKYAMGWYRQAPGKERELVAVITSRDGRTYYADSVKGRFTISRDNAKNTVYLQMNSLKPEDTAVYYCAADLVNGHYYYWGQGTQVTVSS	low polyreactivity
QVQLVESGGGLVQAGGSLRLSCAAYGYIIDRYAMGWYRPAPGKERELVAAISSDGSTYYADSVKGRFTISRDNAKNTVYLQMNSLKPEDTAVYYGAADGGESAWGGYDYWGQGSQVTVSS	low polyreactivity
QVQNVESGRGLVQAGGSLRISCAASGDYAMGWSIQAPGTERELVAAISRRGGSTYYADSVKGRFTISRDNAKNTVYLQMNSLKQDDTAVYSCAADYSSRNRGNRYRLDYWGQGTQVTVSS	high polyreactivity
QVQHVESGGGLVQAGGSLRLSCAASGFTFSKYGMGWYRQAPGKERELVAAISGSGGNTYYADSVKGRFTISRDNAKNTVYLQMNSLKPEDTAVYYCNAEGWRYYYWYHEYGYWGQGTQVTVSS	low polyreactivity
QVQLVESGGGLVQAGGSLRLSCAASGSIFIHNAMGWYRQAPGKERELVPGITTGGSTYYADSVKGRFTISRDNAKNTVYLQMNSLKPEDTAVYYCATARSYLTYSYHYDYWGQGTQVTVSS	low polyreactivity
QVQLVESGGGLVQAGGSLRLSCAASGFTFTDYTMGWYRQAPGKEREFVAAISYRGSNTYYADSVKGRFTISRDNAKNTVYLQMNSLKPEDTAVYYCAADSYRYKYNYWGQGTQVTVSS	high polyreactivity
QVQLVEAGGGLVQAGGSLRLSCAASGSTFPYYTMGGYRQAPGKDRELVAAITWRGGRTYYADSVKGRFTISRDNAKNTVYLQMNSLKPEDTAVYYCAAKQKHTQQTGWKYEYWGQGTQVTVSS	high polyreactivity
QVQLVESGGGLVQAGGSLRLSCAASGSTFQVNVMGWYRPAPGKEREFVAGISYSGGSTYYADSVKGRFTISRDNAKNTVYLQMNSLKPDDTAVYYCAAEEDYNIAGSWTYTYDYWGQGTQVTVSS	low polyreactivity
QVQLVESGGGLVQAGGSLRLSCAASGSIIYNYAMGWYRQAPGKERELVAAINRSGGITYYADSVKGRFTISRDNAKNPVYLQMNSLKPEDTAVYYCAADRSFGHHYWYTGKRYDYWGQGTQVTVST	low polyreactivity
